Source: patent publication US8637452B2, “Water soluble membrane proteins and methods for the preparation and use thereof” (Massachusetts Institute of Technology, priority 2011, dated 2014)

Biological target: T1, SDF1α (Homo sapiens, UniProt P61073, F172Y/F264Y/F293Y/F304Y/F36Y/F49Y/F93Y/I162T/I169T/I173T/I243T/I257T/I286T/I300T/I39T/I53T/I89T/L165Q/L246Q/L253Q/L290Q/L297T/L301Q/L50Q/L86Q/V242T/V82T/V96T/V99T)
T1 construct: HUMAN CXCR4 QTY; made in house; host or cells: cell-free production
Assay: Surface Plasmon Resonance analysis of CXCR4 QTY (Biacore, receptor captured on 1D4 Ab, SDF1α injected)
Assay type: binding
Conditions: SPR, Biacore 2000, CM5 chip; SDF1α 0-1 μM; HBST with 0.2% BSA and 0.2% Fos-Choline-14
Experimental: Human CXCR4 and our CXCR4 QTY proteins obtained from cell-free production and purified with affinity beads were captured in different flow cells on a Biacore CM5 chip with immobilized 1D4 Antibody (Ab) in a Biacore 2000 instrument. Different concentrations of SDF1α, the native ligand for hCXCR4 receptor, were injected over the surface to allow interaction with the receptors.
Biacore CM5 chips were activated with 1-Ethyl-3-[3-dimethylaminopropyl]carbodiimide hydrochloride and N-hydroxysuccinimide according to the manufacturer's protocol prior to a 7 minute injection at 5 μl/min of 1D4 Ab to flow cells 2-4 at 70 μg/ml followed by deactivating of the surfaces in all the 4 flow cells with a short Ethanolamine pulse. The immobilization level of 1D4 Ab range from 8000-25000 Response units (RU).
CXCR4 and CXCR4 QTY mutant are captured by the 1D4 Ab on the CM5 chip by injecting a 0.1 mg/m1 sample of the protein to a single flow cell at 5 μl/min during 15 min with both sample and running buffer containing 0.2% Fos-Choline-14 detergent. The receptors were captured to a level of 800-3000 RU.
SDF1α were injected over all flow cells to allow interaction with both the receptors and flow cell one is used as a reference cell without any immobilized protein. […]

B1: CXCR4 QTY: Water-soluble human CXCR4 variant with 29 QTY mutations in the seven transmembrane helices (SEQ ID NO: 10) (protein)
chain: MEGISIYTSDNYTEEMGSGDYDSMKEPCFREENANYNKTFLPTIYSIIYQTGTVGNGLVILVMGYQKKLRSMTDKYRLHLSTADLQFVTTLPYWATDATANWYFGNFLCKAVHVIYTVNLYSSVLILAFISLDRYLAIVHATNSQRPRKLLAEKVVYVGVWTPAQLLTTPDYTFANVSEADDRYICDRFYPNDLWVVVFQFQHIMVGLILPGIVILSCYCIIISKLSHSKGHQKRKALKTTTTLIQAFFACWQPYYTGISIDSYILLEIIKQGCEFENTVHKWISTTEAQAFYHCCTNPTQYAYLGAKFKTSAQHALTSVSRGSSLKILSKGKRGGHSSVSTESESSSSFHS
B1 was tested, and the “ligand binding (SDF1α)” value was “shows ligand binding”.
